Article PMC3355127

How the values were obtained:
[1] = plasma VWF:Ag ELISA after hydrodynamic injection in VWF-/- mice; conditions: glycan lost; control: WT mVwf cDNA
[2] = SDS/2% agarose multimer gel of plasma, densitometry; conditions: glycan lost; control: WT mVwf cDNA
[3] = whole-blood perfusion over collagen, 2500 s-1, platelet coverage; conditions: glycan lost; control: blood of WT-VWF expressing mice
[4] = VWF antigen ELISA, COS-7 lysate (intracellular retention); conditions: glycan lost; control: WT mVwf
[5] = in vivo NHS-biotin labelling, residual biotinylated VWF in plasma; conditions: glycan lost; control: WT-mVWF
[6] = VWF antigen ELISA, COS-7 supernatant; conditions: glycan lost; control: WT mVwf

Row | Substance | expression_or_secretion, other: VWF:Ag, % of normal murine plasma [1] | oligomerisation [2] | other: thrombus formation on collagen under flow, other: platelet surface coverage [3] | localisation_or_trafficking [4] | degradation_or_half_life, half_life [5] | expression_or_secretion [6]
1 | murine VWF (mVWF): T1468A | no change | no change |  |  |  | 
2 | murine VWF (mVWF): T1256A | no change | no change | decreases, 6.4±1.2 vs 15.8±0.9 |  |  | 
3 | murine VWF (mVWF): T1468A/T1477A/S1486A/S1487A (cluster 2) | no change | no change |  |  |  | 
4 | murine VWF (mVWF): S1487A | no change | no change |  |  |  | 
5 | murine VWF (mVWF): T1248A/T1255A/T1256A (cluster 1) | no change | no change |  |  |  | 
6 | murine VWF (mVWF): T1255A/T1256A | decreases, 432±55 vs 833±76 | no change | decreases, 6.0±0.9 vs 15.8±0.9 | no change | decreases, 3.0±0.3 vs 6.1±1 | no change
7 | murine VWF (mVWF): T1255A | no change | no change | decreases, 8.2±1.2 vs 15.8±0.9 |  |  | 
8 | murine VWF (mVWF): S1486A | no change | no change | decreases, 11.6±1.0 vs 15.8±0.9 |  |  | 
9 | murine VWF (mVWF): T1248A | no change | no change |  |  |  | 
10 | murine VWF (mVWF): T2298A | no change | no change |  |  |  | 
11 | murine VWF (mVWF): T1477A | no change | no change |  |  |  | 
12 | murine VWF (mVWF): T1679A | no change | no change |  |  |  | 
13 | murine VWF (mVWF): S1486A/S1487A | no change | no change |  |  |  | 
